Test: 14C assay: 14CO2 capture from [14C]-carboxyl-labeled dicamba with IPTG-induced recombinant E. coli cells
Conditions: for Dicamba Decarboxylase Activity: IPTG-induced recombinant E. coli cells, 14CO2 from [14C]-carboxyl-labeled dicamba; for decarboxylation activity of dicamba: among the 108 sequences tested, recombinant E. coli cell assay; for Enzymatic Detection level: dicamba decarboxylation activity

Molecule	Dicamba Decarboxylase Activity	decarboxylation activity of dicamba	Enzymatic Detection level
49 (protein, listed as Streptomyces sp.) MAKIIALEEHFSDPAVAKAGAARARALSPGFAASYSPASGLPYSPSPEVLENLAEKRLADMDAGGITMQVLSGLGAQTVPADVAPALVAGSNDKAAAAVRAHPDRFAAFAALPTATPEAAVAELDRSVNELGFVGTLIMGRTEGEFLDAPRFEPILARAAALKVPVFLHPGVPPREITDSNYAAGLPTGIGTRLQTAAWGWHQETAVHFLHLVHSGVLDRYPDLQFILGHWGEMIPFYLDRVDEALPQRATGLDRSFHEYFRENVYLAPSGMWSQAQLRFCLETVPLERIVFAVDYPFIGNEGAVPFLEKAELPQADKRKIAHENAERLLGL	High	showed decarboxylation activity of dicamba	High
33 (protein, listed as Rhizobium leguminosarum) MAQGKIALEEHFAIPETLQDSAGFVPGDYWKELSARLLDIQEKRLRLMDAHGIEKMILSLNAPAVQAIPDRAKALEISRRANDFLAEQCVKNPNRFLGFAALPLQDPDAATQELQRCVTTMGFVGALVNGFSQEGDGTTPLYYDLPQYRSFWAEVEKLNVPFYLHPRNPLPQDSRIYAGHSWLMGPTWAFAQETAVHALRLMGSGLFDEHPALRIIVGHMGEGLPYMMWRIDNRNAWVKVEKSYPAKRPIADYFNENFYITTSGNFRTQSLIDAMLEIGADRILFSADWPFENIDHAANWFDSATISEADRLKIGRTNAVSLFKLDR	High	showed decarboxylation activity of dicamba	High
43 (protein, listed as Rhizobium leguminosarum) MAQGKIALEEHFAIPETLQDSAGFVPGDYWTELSARLLDIQDKRLRLMDTHGIEKMILSLNAPAVQAIPDKAKAVEISRRANDFLAEQCVKNPNRFLGFAALPLQDPDAATQELQRCVTTMGFVGALVNGFSQEGDGTTPLYYDLPQYRPFWAEVEKLDVPFYLHPRNPLPQDSRIYAGHSWLMGPTWAFAQETAVHALRLMGSGLFDEHPALRIIVGHMGEGLPYMMWRIDNRNAWVKVEKSYPAKRPIADYFNENFYITTSGNFRTQSLIDAMLEIGADRILFSADWPFENVDHAANWFDSATISEADRLKIGRTNAVSLFKLDR	High	showed decarboxylation activity of dicamba	High
44 (protein, listed as Mycobacterium avium) MARIITVEEHFQHPEVSARVAELTGPAVEGLAEFGNAFSLDPDSTARLGGNRLAHMDQVGIDVQVVSHGNGSPGTLQHPEAVELCRRVNNDLAAQIAENPDRFRGFATLPLYDPAAAAEELRRCVGDLGFVGALIAGSYDGLFLDDERFDPILTAAEAVDFPIYVHPGLPEAPVSQRYYAGSWPASVHMMFSGPAFGWHAEAGIHIVRLILSGALDRHPTLKLLSGHWGELAAFYLERLDETLGLLPTGLERAPSDYYRQQVWITPSGMYNQNQLNFMTAELGAQRIIYSEDFPYVVRDNVSTFLEQAGLSEADTHAIAHTNAEALLRI	High	showed decarboxylation activity of dicamba	High
28 (protein, listed as Sphingomonas paucimobilis) MARLIATEEAVTFQPVVDALRAHSRTDDASLDMILVRDVYGDEPARPAMIGRLSDVTGERLAEMDSNGVDMHLLSLTAPGVQMFDAETGTRLARIANDLMAQTVAANPTRFAGLGTFAPQDPASAAREIERVATQLRLNGLVINSHTNDLYYDDPFFHPVFEAIEASGLALYIHPRAPSKQIDRAFRDYGMNSAIWGYGIETSTNAVRMILSGLFDRFPRLKIVLGHMGEAIPFWLWRLDYMHGNATTFGGAPKLKLKPSEYFRRNFAITTSGVESHAALRYSIEVLGPENVMWAIDYPYQPMAPAVQFIRTAPIPEDVKAMVAGGNAARIFRIT	High	showed decarboxylation activity of dicamba	High
48 (protein, listed as Amycolatopsis mediterranei) MASMKLYGLEEHFVTADVIEAWRRRDPGLAEPMMKWAVASDITPALLDVDGGRIAAMDDAGIDTTVLSLTTPGLQNLDAAEAVALQAPTNDLIAAAVRRHPGRFQGFATLATSAPAAAADELRRAVTELGLNGALVNANSRGRALDAPGFWDIYEAAEDLRAPVYLHPGVPVPAVTEAYYRGFGEPVNSMLATGAFGWHYDAGLTILRMIVAGVFDRFPGLQVILGHWGEVVLFYLDRVAAMDKLTALRRPIAEYFRSNIFITPGGISSHKYLRWSLETVGVERIMYASDYPFNTERAGSARRFLDTAPVDEAGRERIAYRNWEELIAGIRR	High	showed decarboxylation activity of dicamba	High
31 (protein, listed as Agrobacterium sp.) MAQGKVALEEHFAIPETLQDSAGFVPGDYWKELQHRLLDIQDTRLKLMDAHGIETMILSLNAPAVQAIPDKTKAIEIARRANDVLAEECAKRPDRFLAFAALPLQDPDAATEELQRCVNDLGFVGALVNGFSQEGDGQTPLYYDLPQYRPFWGEVEKLDVPFYLHPRNPLPQDSRIYDGHPWLLGPTWAFAQETAVHALRLMASGLFDEHPRLNIILGHMGEGLPYMMWRIDHRNAWVKLPPRYPAKRRFMDYFNENFHITTSGNFRTQTLIDAILEIGADRILFSTDWPFENIDHASDWFNATSIAEADRVKIGRTNARRLFKLDGA	High	showed decarboxylation activity of dicamba	High
36 (protein, listed as Agrobacterium sp.) MAQGKVALEEHFAIPETLQDSAGFVPGDYWTELQHRLLDIQDTRLKLMDAHGIETMILSLNAPAVQAIPDKTKAIEIARRANDALAEECAKRPNRFLAFAALPLQDPDAATQELQRCVNDLGFVGALVNGFSQEGDGQIPLYYDLPQYRPFWGEVEKLDVPFYLHPRNPLPQDSRIYDGHPWLLGPTWAFAQETAVHALRLMASGLFDEHPRLNIILGHMGEGLPYMMWRIDHRNAWVKLPPRYPAKRRFVDYFNENFHITTSGNFRTQTLIDAILEIGADRILFSTDWPFENIDHASDWFHATSIAEADRVKIGRTNARRLFKLDGR	High	showed decarboxylation activity of dicamba	High
34 (protein, Cupriavidus necator) MAQGKIGLEEHFAIPETLNDSAGFVPGDYWKELSRRLLDIQDDRLRQMDENGMEMMLLSLNAPAVQAVPDRKQACELAVRANDFLAEQVSRRPDRFQALAALPLQDPDFATVELTRCVNELGMRGALVNGFSQIDTPDNVVYYDAPQYASFWAAVEKLDVPFYLHPRNPIASWAQIYDGHPWLLGPTWAFGQETAVHALRLMASGLFDRHPALQIVLGHLGEGLPYSLWRIDNRNAWVKAPKTHPAKKTFRHYFQQNFHLTTSGNFHNQTLIDAILEIGADRILFSTDWPFENIDHAAKWFDSASISEADRTKIGRTNAMKLFKLVA	High	showed decarboxylation activity of dicamba	High
46 (protein, listed as Rhodococcus opacus) MARIITLEEHYLDPAIAAASAPLARELSPDFAAAYDPASGLSYTPSAQVLQDLGQRRIADMDTHGISMQVLSCLTTQQVPADVAPDLVRAANDTAAAAVRAHPDRFAAFAALPTTAPDAAATELARCIDDLGFVGTMINGRTDGEFLDAPRFDPILATAAARNVPIYLHPAVPPRATSDSNYAGLAPLVTARLQTSAWGWHQETAVHFLHLVLSGVLDRYPNLQFILGHWGEMIPFYLDRLDEALPQAVTNLDRTISDYVRENVYITPSGMFNQAQLQYCVETLGVDRILYSVDYPFIGNDGAVSFLDEANLPDEAKHQIAHQNTEKLLGL	High	showed decarboxylation activity of dicamba	High
30 (protein, Enterobacter aerogenes) MARGKIALEEHVSTPENNRLWDSTGEANRNGSEYMQDVERRLLDRSIQLEEMAQRNIDHVILSLTSPGAQSILDKAKAVSFARDTNDFIVDNYVKPNPDKFSAFATLALQNPEAAAEELERAVKKLGMKGALINGYTNVKDSEHGLYLDDESMLVFWDKVNELNVPVYLHPREPLEGPARGIYTGYESLIGSAWGFAQETAVHAIRLMMSGLFDRYPNLNLVLGHLGEGLVHMLPRTQHRLYRQRFGCGLGKAEKPLMHYLQNNFIVTTSGHFNTHSLNNAIEVMGADRVMFSVDYPYEDIHQACDWFDPLEMDEGLKEKIAWGNASRVFNIK	High	showed decarboxylation activity of dicamba	High
47 (protein, listed as Serratia odorifera) MAKIICLEEHTLDKALVMASMPAALAQAPFLSDWGKTITDGNLPDRSRPQIEKNDLINVKGADIGRGRLDDMDEAGITMQVLSVGGFPHLISAAEGVDLNRAANDRLANAVNAHPDRFAAFATLPWAQPDAAEKELERAVKELGFKGALLNGRPSIHFLDHPDYDGLLARFNALGVPLYLHPGLPVRSVQQAYYSGFSDEVTARLSMFGWGWHHEAGIHLLRLILSGAFDKYPNLQVISGHWGEMLPFWLQRLDDSLPQAATGLRRTITQTFREQVYVTPSGMLTLPHFQFIYALLGAERILFSVDYPYQTLDGVKAFIQSLPVPEEAKEAIAFRNAERLFGLTS	High	showed decarboxylation activity of dicamba	High
35 (protein, Burkholderia sp) MAFKASRKIALEEHFAIDATVQDSAGFVPPSYWAELKRRLLDIHDRRIDEMDRNGVELMVLSLNAPTVQAVPNIKDAYDLSRRANDFLAEQIVKRPERFKGFAALPMQSPDLAARELERCVKELNFVGALVNGFSQVEESGTALYYDLPQYRQFWSVVQALDVPFYLHPRNPLPAHAPIYEGHPWLLGPTWAFGQETAVHALRLMGSGLFDEYPELKIILGHMGEGLPYSMWRIDNRNAWVETQPNYPAKKRIAEYFHKNFWLTTSGNFRTQTLIDAMLEIGSDRILFSTDWPFENVDHAAQWFDDAAISENDRIKIARTNAARLFKLEP	High	showed decarboxylation activity of dicamba	High

Reference: patent publication US20140289906A1, “Compositions Having Dicamba Decarboxylase Activity and Methods of Use” (priority 2013, published 2014)
